Data: patent publication US20250297004A1, “NECTIN-4 BINDING AGENTS” (INNATE PHARMA, priority 2022, published 2025)

What was measured:
[1] = biological target: T1, human Nectin-4 expressed on cells (human, UniProt Q96NY8 32-510); test: flow cytometry on SUM185 cells, antibody at 10 ug/ml
T1 sequence: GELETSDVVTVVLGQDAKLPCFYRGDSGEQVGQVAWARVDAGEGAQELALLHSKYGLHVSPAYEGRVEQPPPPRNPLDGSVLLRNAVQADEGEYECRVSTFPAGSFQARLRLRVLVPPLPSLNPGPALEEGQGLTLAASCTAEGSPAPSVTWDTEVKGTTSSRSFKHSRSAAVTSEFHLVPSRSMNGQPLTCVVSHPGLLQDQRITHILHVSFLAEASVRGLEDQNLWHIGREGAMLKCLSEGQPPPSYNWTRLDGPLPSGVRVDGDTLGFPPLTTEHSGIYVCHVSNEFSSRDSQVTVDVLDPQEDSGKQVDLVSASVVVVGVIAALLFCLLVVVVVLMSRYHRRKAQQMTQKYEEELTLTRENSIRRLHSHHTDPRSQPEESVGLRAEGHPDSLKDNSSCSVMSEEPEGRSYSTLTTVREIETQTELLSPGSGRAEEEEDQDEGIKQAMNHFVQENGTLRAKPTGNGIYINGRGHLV

[2] = biological target: T1, human Nectin-4 expressed on cells; test: flow cytometry on SUM190 cells, antibody at 10 ug/ml
[3] = system: SUM190 cells subcutaneously engrafted in CB17-SCID mice; test: In vivo efficacy of ggfg-Dxd ADCs, Nectin-4 low/SUM190 mouse model of human breast cancer; conditions: single i.v. injection 3 mg/kg; each antibody conjugated to ggfg-Dxd, DAR=8; FIG. 4
Experimental: SUM190 cells were subcutaneously engrafted in CB17-SCID immunodeficient mice at a dose of 0.5 million cells in 100 μl of Matrigel with growth factor diluted at ½ in PBS. When tumors reached a volume between 195 and 250 mm3, mice were randomized into groups of 9 mice for intravenous treatment with a single injection of 3 mg/kg of camptothecin ADCs. Tumor growths were followed twice a week. Kaplan Meier survival curves were established by using GraphPad Prism V7 software according to the following criteria: When the tumor volume reached 1500 mm3, mice were euthanized and considered dead on the day of sacrifice (D).

SUM185 cells = test: Comparative in vitro killing of SUM185 cells (model of anti-HER2 resistance), CTG; format: cell-based, human; conditions: 5 days, 5E7 ADC DAR=8, PADCEV DAR=4, FIG. 5
Experimental: This setting was used as a model of anti-HER2 resistance. SUM185 cells express Nectin-4 at relatively high levels, with Nectin-4 expression levels about twice that of HER2 in these cells (see Example 1). In this experiment, the 5E7 antibody was tested as an ADC having DAR=8 along with PADCEV™ (DAR=4, specification for FDA-approved PADCEV™) and control antibodies all conjugated with the same toxin at equivalent drug to antibody ratios. 5E7 was conjugated with a camptothecin analogue Dxd via the ggfg-Dxd linker.
Briefly, dose-ranges of each tested Ab (starting point 150 nM, dilution factor 2 for 3 points, then 5 for 5 points) were incubated on cells for 5 days before cell viability measurement by addition of CTG substrate. Luminescence vs. Ab concentration was plotted on graph.
For each ADC, a concentration range of ADC was incubated with nectin-4-expressing cells. After incubation, CTG substrate was added at 1:1 ratio and the luminescent signal was read with a plate reader (Enspire), allowing quantification of the ATP present (indicator of metabolically active cells) which was proportional to cell viability.

UC (patients) = conditions: EV-201 Phase 2 study; cited from earlier work
[4] = system: MC-38 cells endogenously expressing MDR1 P-glycoprotein (Pgp), engineered to express Nectin-4; test: In vitro efficacy of ADCs in Pgp-expressing cancer model (CTG); format: cell-based, murine; conditions: 150 nM ADC, normalized to control antibody; cyclosporin A 5 μM; FIG. 10B
Experimental: MC-38 cells that endogenously express MDR1 P-glycoprotein (Pgp) were engineered to express Nectin-4 and cultured in DMEM+10% FBS. Cells were either treated with vehicle (DSMO) or with cyclosporin A (5 μM, stock solution in DMSO) known to act as an inhibitor of Pgp, in presence of ADCs.
The ADCs and the equivalent isotype control ADCs were used at dose range from 150 to 2.3 10^−3 nM. After five days of co-incubation with cells, cell viability was measured by addition of Cell Titer Glo™ (CTG) substrate. Luminescence vs. Ab concentration was plotted.

[5] = biological target: T1, human Nectin-4 expressed on cells; test: flow cytometry (FL2-A) on SUM185 human breast cancer cells; unstained cells 71.5
[6] = biological target: HER2 on human breast cancer tumor cells (human) (UniProt P04626); test: as above
[7] = biological target: T2, rat Nectin-4 protein expressed on CHO cells (rat, UniProt Q8R007 31-508 (mouse entry)); test: flow cytometry on CHO cells expressing rat Nectin-4, Median MFI (PE)
T2 construct: no cleavage site is stated; also called Rat Nectin-4 V5
T2 chain: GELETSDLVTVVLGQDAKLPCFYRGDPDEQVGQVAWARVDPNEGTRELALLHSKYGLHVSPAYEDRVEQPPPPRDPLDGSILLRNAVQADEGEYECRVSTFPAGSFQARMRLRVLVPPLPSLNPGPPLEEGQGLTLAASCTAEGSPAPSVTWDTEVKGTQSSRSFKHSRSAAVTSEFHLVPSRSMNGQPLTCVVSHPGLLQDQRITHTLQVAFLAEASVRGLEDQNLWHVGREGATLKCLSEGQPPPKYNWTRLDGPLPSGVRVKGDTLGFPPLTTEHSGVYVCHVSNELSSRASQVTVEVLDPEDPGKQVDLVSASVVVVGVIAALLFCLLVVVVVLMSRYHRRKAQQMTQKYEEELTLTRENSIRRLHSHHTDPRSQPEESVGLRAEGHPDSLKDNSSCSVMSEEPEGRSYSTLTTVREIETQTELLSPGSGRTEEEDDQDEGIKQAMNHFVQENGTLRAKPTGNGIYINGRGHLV
Experimental: (§1) Anti-Nectin-4 antibodies were tested by flow cytometry for binding to different CHO cell lines made to express respectively the mouse, cynomolgus and rat Nectin-4 protein (including an N-terminal V5 tag not shown in the sequences below).

[8] = biological target: T3, cynomolgus Nectin-4 protein expressed on CHO cells (cynomolgus, UniProt Q96NY8 32-510 (human entry)); test: flow cytometry on CHO cells expressing cynomolgus Nectin-4, Median MFI (PE)
T3 construct: also called Cyno Nectin-4 V5
T3 chain: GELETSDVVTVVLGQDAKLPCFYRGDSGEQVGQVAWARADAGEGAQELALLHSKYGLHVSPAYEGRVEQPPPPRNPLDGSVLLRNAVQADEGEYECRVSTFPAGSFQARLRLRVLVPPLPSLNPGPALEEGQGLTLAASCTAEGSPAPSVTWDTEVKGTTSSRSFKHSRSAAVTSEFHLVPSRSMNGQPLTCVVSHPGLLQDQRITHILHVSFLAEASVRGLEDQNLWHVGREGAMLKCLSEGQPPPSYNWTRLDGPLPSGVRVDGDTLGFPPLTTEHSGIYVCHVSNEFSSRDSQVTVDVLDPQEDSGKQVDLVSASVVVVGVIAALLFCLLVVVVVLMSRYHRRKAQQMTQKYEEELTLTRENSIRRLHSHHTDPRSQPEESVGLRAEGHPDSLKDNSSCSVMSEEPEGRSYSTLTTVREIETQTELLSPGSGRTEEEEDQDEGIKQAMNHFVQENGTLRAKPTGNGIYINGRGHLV
Experimental: as §1

human Nectin-4 = biological target: T4, human Nectin-4 (Homo sapiens, UniProt Q96NY8); test: Binding to human Nectin-4 by SPR; conditions: second set (Table 7)
T4 sequence (Q96NY8 32-510): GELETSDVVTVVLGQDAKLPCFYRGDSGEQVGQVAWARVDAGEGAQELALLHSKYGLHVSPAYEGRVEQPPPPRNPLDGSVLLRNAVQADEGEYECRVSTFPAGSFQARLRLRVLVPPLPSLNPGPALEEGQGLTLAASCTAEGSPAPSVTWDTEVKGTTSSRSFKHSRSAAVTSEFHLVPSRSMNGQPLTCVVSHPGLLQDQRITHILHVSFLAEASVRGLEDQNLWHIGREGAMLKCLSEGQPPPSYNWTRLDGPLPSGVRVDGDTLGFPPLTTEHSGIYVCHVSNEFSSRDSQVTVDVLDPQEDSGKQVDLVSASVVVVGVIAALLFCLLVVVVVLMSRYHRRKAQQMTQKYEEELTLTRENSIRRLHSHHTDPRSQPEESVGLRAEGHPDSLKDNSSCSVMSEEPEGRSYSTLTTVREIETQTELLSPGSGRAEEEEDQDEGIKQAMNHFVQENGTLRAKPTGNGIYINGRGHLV
Experimental: The antibodies in Table 3 of Example 3 were cloned as human IgG1 isotype antibodies, produced and purified, then tested for binding to human Nectin-4. Affinity of the 16 humanized variants, as well as their association and dissociation constants were assessed by SPR analysis. Table 4 summarizes all the calculated constants (Affinity constant KD (nM), association constant ka (1/Ms) and dissociation constant kd (1/s)).
The antibodies in Table 6 of Example 5 were cloned as human IgG1 isotype antibodies, produced and purified, then tested for binding to human Nectin-4. Affinity of the 16 humanized variants, as well as their association and dissociation constants were assessed by SPR analysis. Table 7 summarizes all the calculated constants (Affinity constant KD (nM), association constant ka (1/Ms) and dissociation constant kd (1/s)).

[9] = biological target: T1, human Nectin-4 expressed on cells; test: cell-based or functional assay
[10] = biological target: human Nectin-4 (protein used in the SPR affinity measurements) (human) (UniProt Q96NY8); test: SPR, human IgG1
[11] = biological target: T1, human Nectin-4 expressed on cells; test: flow cytometry on SUM190 cells, MedFI at saturation
Experimental: The humanized antibodies in Table 3 of Example 3 and in Table 6 of Example 5 were cloned, produced and purified, then tested for binding to Nectin-4 expressing cells by flow cytometry. Binding of humanized variants in human IgG1 format was determined on the SUM190 cell line expressing high levels of Nectin-4.

[12] = biological target: T1, human Nectin-4 expressed on cells; test: cell-based or functional assay; remark: listed apart in the source

anti-Nectin-4 antibody (ASG-22ME modified as a human IgG1 isotype containing a N297Q mutation)
MFI [1]: 4330 MFI
MFI [2]: 991 MFI

enfortumab [reference compound]
control of tumor growth [3]: no longer showed the ability to control tumor growth

PADCEV™
killing of SUM185 cells / reduction of cell viability (SUM185 cells): able to kill the SUM185 more efficiently than ENHERTU™
CR (complete response rate) (UC (patients)): 12%
ORR (objective response rate) (UC (patients)): 44%
discontinuation due to clinical symptoms (UC (patients)): 5%
discontinuation due to progressive disease as assessed by RECIST (UC (patients)): 48%
patients that discontinued experienced adverse events, notably neuropathy (UC (patients)): 18%
anti-tumor activity in presence or absence of the Pgp inhibitor cyclosporine [4]: negatively affected by Pgp

Control Antibody
Median of fluo. [5]: 94.5
Median of fluo. [6]: 94.5

B1: enfortumab (antibody, V domains shown)
VH: EVQLVESGGGLVQPGGSLRLSCAASGFTFSSYNMNWVRQAPGKGLEWVSYISSSSSTIYYADSVKGRFTISRDNAKNSLSLQMNSLRDEDTAVYYCARAYYYGMDVWGQGTTVTVSS
VL: DIQMTQSPSSVSASVGDRVTITCRASQGISGWLAWYQQKPGKAPKFLIYAASTLQSGVPSRFSGSGSGTDFTLTISSLQPEDFATYYCQQANSFPPTFGGGTKVEIKR
EC50 (read off the curve) [7]: ~0.2 µg/mL
EC50 (read off the curve) [8]: ~0.08 µg/mL

B2: H8L1 (antibody, human IgG1, V domains shown)
VH: QVQLVQSGAEVKKPGASVKVSCKASGYIFTSYWMHWVKQAPGQGLEWIGEIDPSDSYTNYNQKFKGRVTMTLDKSTSTTYMELSSLRSEDTAVYYCARGYGNYGDYWGQGTLVTVSS
VL: DVVMTQSPLSLPVTPGEPASISCRSSKSLLHSNGITYLYWYLQKPGQSPQLLIYQMSNLASGVPDRFSSSGSGTDFTLKISRVEAEDVGVYYCAQNLELPWTFGGGTKVEIK
notes: human IgG1 isotype
ka (human Nectin-4; SPR association constant): 250000 M⁻¹ s⁻¹
kd (human Nectin-4; SPR dissociation constant): 0.0048 s⁻¹
Kd (human Nectin-4; SPR, human IgG1 isotype antibodies): 19.2 nM
internalization efficiency on SUM190, normalized to chimeric parental antibody (Fab-ZAP, CTG), experiment 1 [9]: 132 % of chimeric parental
internalization efficiency on SUM190, normalized to chimeric parental antibody (Fab-ZAP, CTG), experiment 2 [9]: 65.2 % of chimeric parental
Kd [10]: 19.2 nM
koff [10]: 0.0048 s⁻¹
kon [10]: 250000 M⁻¹ s⁻¹
Max MedFi [11]: 17300 MedFI
internalization efficiency on MDA-MB-468, normalized to chimeric parental antibody (Fab-ZAP, CTG), first column [12]: 71.2 % of chimeric parental
internalization efficiency on MDA-MB-468, normalized to chimeric parental antibody (Fab-ZAP, CTG), second column [12]: 71.2 % of chimeric parental
